In article PMC5364132, “Anti-Biofilm Activity of a Self-Aggregating Peptide against Streptococcus mutans” (Frontiers in Microbiology, 2017):

Target: the molecule itself
Assay: FTIR spectroscopy; peptides at 1 and 0.1 mg/ml in PBS, 8 μl dried as thin films on the ATR surface; spectra 1800-1500 cm^-1; peaks at 1621 and 1695 cm^-1 read as antiparallel β-sheet assembly

B1: synthetic peptide P1 (peptide)
peptide: PARKARAATAATAATAATAATAAT
notes: 24-amino acid synthetic peptide designed with repeated motifs of the Ixodes tick antifreeze glycoprotein (IAFGP); Not the streptococcal adhesin P1 (AgI/II, PAc); also called antivirulence peptide P1; source: synthetic peptide (Genscript, >80% purity)
binding result: binds
